Measurements reported in PMC3229523, “Identification of Lactoferricin B Intracellular Targets Using an Escherichia coli Proteome Chip” (PLoS ONE, 2011).
Ends that are not written are not given here. * marks the point of attachment. Biotin = O=C1N[C@H]2[C@H](CS[C@H]2CCCCC(=O)*)N1

Tests used:
Experiment in all cases: peptide or protein array; E. coli proteome chip: purified His-tagged proteins printed in duplicate on Fullmoon slides, blocked with 1% BSA; 10 nM N-terminal biotinylated LfcinB with 1% BSA, room temperature, 1 h; detected with DyLight 649-labeled streptavidin, ratio to DyLight 549-labeled anti-His antibody; ProCAT normalisation, local cut-off; triplicate chips
Settings in all cases: both partners purified
RecC = molecular target: T1, RecC (E. coli K-12, UniProt P07648 1-1122)
T1 construct: RecC, E. coli K-12
T1 sequence (looked up): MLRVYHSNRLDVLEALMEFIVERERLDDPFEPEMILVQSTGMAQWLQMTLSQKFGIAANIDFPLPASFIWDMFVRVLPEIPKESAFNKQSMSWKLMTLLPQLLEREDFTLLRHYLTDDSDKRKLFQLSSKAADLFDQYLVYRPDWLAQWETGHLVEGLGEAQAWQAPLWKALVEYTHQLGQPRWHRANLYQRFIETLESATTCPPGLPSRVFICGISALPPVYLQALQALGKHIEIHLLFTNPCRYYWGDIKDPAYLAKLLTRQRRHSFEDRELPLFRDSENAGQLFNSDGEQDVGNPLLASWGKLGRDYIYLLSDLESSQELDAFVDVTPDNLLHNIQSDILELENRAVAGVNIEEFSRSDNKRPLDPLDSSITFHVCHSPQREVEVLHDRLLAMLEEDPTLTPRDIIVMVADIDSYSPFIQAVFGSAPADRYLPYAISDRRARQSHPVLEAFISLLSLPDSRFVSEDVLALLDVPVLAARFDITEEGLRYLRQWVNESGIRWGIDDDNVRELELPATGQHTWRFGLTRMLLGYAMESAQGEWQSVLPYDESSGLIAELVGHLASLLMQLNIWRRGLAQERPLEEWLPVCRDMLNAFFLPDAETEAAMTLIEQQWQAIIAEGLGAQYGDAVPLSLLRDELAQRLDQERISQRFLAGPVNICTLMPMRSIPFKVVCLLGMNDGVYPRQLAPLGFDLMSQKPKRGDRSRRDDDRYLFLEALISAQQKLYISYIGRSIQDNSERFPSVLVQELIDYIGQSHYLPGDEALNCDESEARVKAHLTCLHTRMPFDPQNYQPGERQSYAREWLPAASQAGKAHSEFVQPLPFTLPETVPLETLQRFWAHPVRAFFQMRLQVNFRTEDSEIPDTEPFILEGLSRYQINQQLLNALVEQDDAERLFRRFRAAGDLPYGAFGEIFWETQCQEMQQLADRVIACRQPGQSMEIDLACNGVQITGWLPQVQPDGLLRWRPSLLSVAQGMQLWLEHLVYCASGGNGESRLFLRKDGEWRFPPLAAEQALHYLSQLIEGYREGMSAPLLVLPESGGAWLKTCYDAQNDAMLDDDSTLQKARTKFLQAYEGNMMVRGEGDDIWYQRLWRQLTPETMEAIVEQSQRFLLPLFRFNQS

AgaY = molecular target: T2, AgaY (E. coli K-12, UniProt P0AB74 1-286)
T2 construct: AgaY, E. coli K-12

HolB = molecular target: T3, HolB (E. coli K-12, UniProt P28631 1-334)
T3 construct: HolB, E. coli K-12

HolC = molecular target: T4, HolC (E. coli K-12, UniProt P28905 1-147)
T4 construct: HolC, E. coli K-12

WcaL = molecular target: T5, WcaL (E. coli K-12, UniProt P71243 1-406)
T5 construct: WcaL, E. coli K-12
T5 sequence (looked up): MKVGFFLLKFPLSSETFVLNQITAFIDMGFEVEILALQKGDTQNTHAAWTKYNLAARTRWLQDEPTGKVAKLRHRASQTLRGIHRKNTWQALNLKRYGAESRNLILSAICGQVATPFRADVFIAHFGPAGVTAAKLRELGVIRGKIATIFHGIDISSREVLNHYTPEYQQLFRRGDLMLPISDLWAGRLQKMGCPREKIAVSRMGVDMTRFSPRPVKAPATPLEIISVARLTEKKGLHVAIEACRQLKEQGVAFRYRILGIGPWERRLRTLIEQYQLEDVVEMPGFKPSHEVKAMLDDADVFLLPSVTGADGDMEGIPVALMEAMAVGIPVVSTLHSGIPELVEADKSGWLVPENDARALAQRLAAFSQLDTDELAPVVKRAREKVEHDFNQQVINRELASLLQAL

RfaZ = molecular target: T6, RfaZ (E. coli K-12, UniProt P27241 1-283)
T6 construct: RfaZ, E. coli K-12
T6 sequence (looked up): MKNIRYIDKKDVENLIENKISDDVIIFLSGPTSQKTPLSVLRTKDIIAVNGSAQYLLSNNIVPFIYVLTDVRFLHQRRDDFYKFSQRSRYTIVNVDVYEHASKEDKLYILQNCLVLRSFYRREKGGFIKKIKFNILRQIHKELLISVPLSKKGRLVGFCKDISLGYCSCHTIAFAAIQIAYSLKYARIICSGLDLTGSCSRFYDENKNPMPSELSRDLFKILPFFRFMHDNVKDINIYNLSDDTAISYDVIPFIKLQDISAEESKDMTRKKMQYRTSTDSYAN

Measured: binding result

T4 sequence (P28905 whole entry): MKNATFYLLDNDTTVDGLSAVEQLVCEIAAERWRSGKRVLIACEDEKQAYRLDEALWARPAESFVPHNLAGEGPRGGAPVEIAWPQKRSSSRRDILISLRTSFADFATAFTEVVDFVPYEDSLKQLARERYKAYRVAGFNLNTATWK
T2 sequence (P0AB74 whole entry): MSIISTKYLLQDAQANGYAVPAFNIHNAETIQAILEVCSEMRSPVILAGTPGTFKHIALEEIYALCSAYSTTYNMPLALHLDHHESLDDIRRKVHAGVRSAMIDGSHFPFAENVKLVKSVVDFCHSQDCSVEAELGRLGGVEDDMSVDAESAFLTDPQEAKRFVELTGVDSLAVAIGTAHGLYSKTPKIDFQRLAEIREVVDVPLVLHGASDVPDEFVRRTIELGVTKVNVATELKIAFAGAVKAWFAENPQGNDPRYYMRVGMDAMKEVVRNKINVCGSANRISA
T3 sequence (P28631 whole entry): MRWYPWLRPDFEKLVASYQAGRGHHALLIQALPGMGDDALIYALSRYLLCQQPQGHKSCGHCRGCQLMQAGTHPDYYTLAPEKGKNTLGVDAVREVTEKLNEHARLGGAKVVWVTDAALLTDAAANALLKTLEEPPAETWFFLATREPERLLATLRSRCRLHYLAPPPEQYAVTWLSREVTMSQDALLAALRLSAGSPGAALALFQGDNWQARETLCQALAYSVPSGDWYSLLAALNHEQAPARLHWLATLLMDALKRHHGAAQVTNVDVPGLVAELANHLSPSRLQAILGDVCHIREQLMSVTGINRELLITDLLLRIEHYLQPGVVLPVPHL

B1: N-terminal biotinylated Lactoferricin B (peptide, UniProt P24627 36-60, looked up)
peptide: Biotin-FKCRRWQWRMKKLGAPSITCVRRAF
modifications: ends and bridges not checked
notes: lactoferricin B (LfcinB), cationic antimicrobial peptide of 25 amino acids; also called biotinylated LfcinB; biotin-labeled LfcinB; source: bought: Kelowna Inc
binds: all assays above
